The target in one assay is human eIF4E (human, UniProt P06730 1-217).
For assay [1], the target named is T1, LeishIF4E-1 (Leishmania cap-binding isoform 1) (Leishmania major, UniProt E9ADE1 1-214).
T1 sequence (looked up): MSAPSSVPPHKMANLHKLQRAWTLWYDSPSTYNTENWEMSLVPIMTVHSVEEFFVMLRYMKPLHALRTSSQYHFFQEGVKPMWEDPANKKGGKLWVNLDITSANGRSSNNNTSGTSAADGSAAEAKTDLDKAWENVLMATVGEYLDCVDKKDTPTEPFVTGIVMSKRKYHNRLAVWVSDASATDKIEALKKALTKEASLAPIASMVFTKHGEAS
The assay is described as follows: ITC. (In general: ITC needs no label: the signal is the heat of the interaction.)

Chain of human eIF4E (P06730 whole entry, canonical isoform): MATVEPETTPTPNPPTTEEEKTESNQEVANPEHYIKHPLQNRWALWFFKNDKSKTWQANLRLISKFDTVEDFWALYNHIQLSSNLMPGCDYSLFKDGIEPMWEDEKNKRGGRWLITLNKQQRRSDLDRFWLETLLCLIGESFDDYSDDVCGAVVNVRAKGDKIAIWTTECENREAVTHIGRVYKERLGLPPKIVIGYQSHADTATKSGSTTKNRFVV

B1: Leish4E-IP1 (construct not stated; data not shown) (domain or fragment, Leishmania major, UniProt E9AFM3 1-52, looked up)
chain: MPSVRTMYTREELLRIATLASAMDLGPEVLRKFDVIEVAEPVPTPKRRDAES
On to B1, for which, in the assay with human eIF4E, the “fold lower binding affinity than for LeishIF4E-1” value worked out at 10 fold.

B2: Leish4E-IP1_(1–52) (domain or fragment, Leishmania major, UniProt E9AFM3 1-52, looked up)
chain: B1 chain
As for B2, in assay [1], binding was put at a Kd of 9.7 nM and the dH was -15.5 ± 0.282 kcal/mol.

B3: Leish4E-IP1_(1–100) (domain or fragment, Leishmania major, UniProt E9AFM3 1-100, looked up)
chain: MPSVRTMYTREELLRIATLASAMDLGPEVLRKFDVIEVAEPVPTPKRRDAESNFKGSVFTDNFSTSTTITNLGPNGGGNSGGKGGHNSGMNGGGSSSNHP
For B3, in assay [1], the affinity, expressed as Kd, was 87 nM and the dH was -3.11 ± 0.0804 kcal/mol.

For the origin of these results see PMC5909430 (Nucleic Acids Research, 2018).
